Source: paper PMC9484259

Tests used:
Test in all cases: BLI; Forte Bio Octet; biotinylated Mm IgG or Fc captured on streptavidin SAX 2.0 tips, FcγRIII in solution in 3-fold serial dilutions (10 mM to 0.013 mM [sic]), PBST (0.05% Tween-PBS), 300 s association and 300 s dissociation; KD from equilibrium fits, average of two independent experiments; the footnote of Table 1 says SPR
[1] = molecular target: Mm IgG2 (Macaca mulatta (rhesus macaque))
[2] = molecular target: Fc of Mm IgG4 (Macaca mulatta (rhesus macaque))
[3] = molecular target: Fc of Mm IgG3 (Macaca mulatta (rhesus macaque))
[4] = molecular target: Mm IgG4 (Macaca mulatta (rhesus macaque))
[5] = molecular target: Mm IgG3 (Macaca mulatta (rhesus macaque))
[6] = molecular target: macaque immunoglobulin IgG1 Fc (residues 237-447) (Macaca mulatta (rhesus macaque))
[7] = molecular target: Fc of Mm IgG2 (Macaca mulatta (rhesus macaque))
[8] = molecular target: Mm IgG1 (Macaca mulatta (rhesus macaque))

Row | Kd [1] [nM] | Kd [2] [nM] | Kd [3] [nM] | Kd [4] [nM] | Kd [5] [nM] | Kd [6] [nM] | Kd [7] [nM] | Kd [8] [nM] | Substance
1 | 2600 | 1000 | 250 | 3000 | 4200 | 30 | 1200 | 460 | Mm FcγRIII(Val^158), partial glycosylation (Asn^38 and Asn^169 glycans removed), complex glycans (receptor)
2 | 2800 | 1900 | 160 | 1700 | 3000 | 60 | 1500 | 280 | Mm FcγRIII(Ile^158), partial glycosylation (Asn^38 and Asn^169 glycans removed), Man5 glycans (receptor)
3 | 1800 | 530 | 240 | 300 | 2300 | 300 | 80 | 280 | Mm FcγRIII(Val^158), fully glycosylated, Man5 glycans (receptor)
4 | 1800 | 1800 | 400 | 980 | 1900 | 250 | 230 | 260 | Mm FcγRIII(Ile^158), fully glycosylated, complex glycans (from UniProt A3RFZ7 21-206) (receptor)
5 | 2100 | 630 | 460 | 570 | 3200 | 360 | 90 | 410 | Mm FcγRIII(Val^158), fully glycosylated, complex glycans (receptor)
6 | 2300 | 2200 | 230 | 2300 | 2800 | 120 | 1600 | 340 | Mm FcγRIII(Ile^158), partial glycosylation (Asn^38 and Asn^169 glycans removed), complex glycans (receptor)
7 | 1500 | 1100 | 290 | 490 | 1900 | 210 | 150 | 220 | Mm FcγRIII(Ile^158), fully glycosylated, Man5 glycans (from UniProt A3RFZ7 21-206) (receptor)
8 | 2200 | 850 | 280 | 2200 | 4800 | 10 | 610 | 290 | Mm FcγRIII(Val^158), partial glycosylation (Asn^38 and Asn^169 glycans removed), Man5 glycans (receptor)
